Positions count from the first letter of the chain named.
B1: CTLA-4 specific lipocalin mutein (SEQ ID NO: 4) (designed binder)
chain: QDSTSDLIPAPPLSKVPLQQNFQDNQFHGKWYVVGLAGNRILRDDQHPMPMYATIYELKGDKSYNVTSVISSHKKCLYPIATFVPGSQPGEFTLGNIKSYGDKWSYLVRVVSTDYNQYAVVFFKHADSNYESFSITIYGRTKELASELKENFIRFSKSLGLPENHIVFPVPIDQCIDG
notes: hNGAL (lipocalin 2) mutein
B2: lipocalin mutein SEQ ID NO: 65 (designed binder)
chain: QDSTSDLIPAPPLSKVPLQQNFQDNQFQGKWYVVGLAGNRILRDDQHPMPMYATIYELKEDKSYQVTSVISSHKKCLYPIATFVPGSQPGEFTLGNIKSYGDKWSYLVRVVSTNYNQHAMVFFKHADSNYESFSITLYGRTKELTSELKENFIRFSKSLGLPENHIVFPVPIDQCIDGSAWSHPQFEK
B3: lipocalin mutein SEQ ID NO: 66 (designed binder)
chain: B2 chain with D44L, K98R, W104T, S128T
B4: lipocalin mutein SEQ ID NO: 62 (designed binder)
chain: B1 chain with H28Q
B5: lipocalin mutein SEQ ID NO: 61 (designed binder)
chain: B1 chain with H28Q, D44L, K98R, W104T, S128T
B6: lipocalin mutein SEQ ID NO: 94 (designed binder)
chain: QDSTSDLIPAPPLSKVPLQQNFQDNQFQGKWYVVGLAGNRILRQDQHPMPMYATIYELKEDKSYQVTSVISSHKKCLYPIATFVPGSQPGEFTLGNIKSYGDKVSYLVRVVSTNYNQHAMVFFKYADRNFESFSITLYGRTKELTSELKENFIRFSKSLGLPENHIVFPVPIDQCIDG

target: T1, human CTLA-4 on transfected CHO-K1 cells (human, UniProt P16410 36-223); experiment: FACS competition: inhibition of 20 nM B7.1 Fc-bio binding to human CTLA-4-transfected CHO cells
T1 construct: whole, on cells; also called CHO: CTLA-4; human CTLA-4 expressing CHO cells
T1 sequence (P16410 36-223): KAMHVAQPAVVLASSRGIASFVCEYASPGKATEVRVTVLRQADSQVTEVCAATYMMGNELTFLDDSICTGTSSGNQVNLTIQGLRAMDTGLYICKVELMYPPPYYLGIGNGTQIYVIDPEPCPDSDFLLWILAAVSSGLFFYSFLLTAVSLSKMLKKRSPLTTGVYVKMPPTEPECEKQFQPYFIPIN

| Binder | IC50 |
| --- | --- |
| B1 | 23 nM |

target: T2, Human CTLA-4-Fc (Chimerigen, CHI-HF-210A4-M001) (human, UniProt P16410 37-162); experiment: SPR (Biacore T200), human CTLA-4-Fc captured by anti-human IgG-Fc, mutein as analyte, 1:1 fit
T2 construct: Bought protein; also called hCTLA-4; not shown: Fc part of the bought fusion
T2 sequence (P16410 37-162 limits assumed, change not shown): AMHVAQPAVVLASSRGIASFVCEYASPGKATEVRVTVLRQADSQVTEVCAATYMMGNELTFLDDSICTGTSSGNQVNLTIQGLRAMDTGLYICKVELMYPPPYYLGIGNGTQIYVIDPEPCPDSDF

| Binder | Kd | koff | kon |
| --- | --- | --- | --- |
| B2 | 0.62 nM | 0.00044 s⁻¹ | 710000 M⁻¹ s⁻¹ |
| B3 | 1.8 nM | 0.0013 s⁻¹ | 750000 M⁻¹ s⁻¹ |
| B4 | 0.36 nM | 0.00027 s⁻¹ | 750000 M⁻¹ s⁻¹ |
| B5 | 0.94 nM | 0.00072 s⁻¹ | 770000 M⁻¹ s⁻¹ |
| B1 | 0.35 nM | 0.00022 s⁻¹ | 640000 M⁻¹ s⁻¹ |
| B6 | 1.8 nM | 0.00061 s⁻¹ | 340000 M⁻¹ s⁻¹ |

target: T1, human CTLA-4 on transfected CHO-K1 cells; experiment: FACS competition on human CTLA-4-transfected CHO cells; blocked ligand 20 nM biotinylated human B7.1 Fc, detected with streptavidin-PE

| Binder | IC50 (read off the curve) |
| --- | --- |
| B1 | ~20 nM |

target: T1, human CTLA-4 on transfected CHO-K1 cells; experiment: FACS competition: inhibition of 20 nM biotinylated CD80/B7.1 binding to CTLA-4-transfected CHO-K1 cells

| Binder | EC50 |
| --- | --- |
| B2 | 7.8 nM |
| B3 | 7.4 nM |
| B4 | 6 nM |
| B5 | 9.3 nM |
| B1 | 7.6 nM |
| B6 | 13.4 nM |

target: T1, human CTLA-4 on transfected CHO-K1 cells; experiment: FACS competition on human CTLA-4-transfected CHO cells; blocked ligand 20 nM biotinylated human B7.1, streptavidin-phycoerythrin

| Binder | IC50 (read off the curve) |
| --- | --- |
| B6 | 10 to 20 nM |
